Our source for the Km values is US4331762A, “Bacillus stearothermophilus strain UK 788 and process for producing a useful enzyme” (Unitika Ltd., priority 1980, dated 1982).

Experiment in all cases: purified protein, by the assay type
Substrate in data set [1]: NC(=O)c1ccc[n+]([C@@H]2O[C@H](COP(=O)([O-])OP(=O)(O)OC[C@H]3O[C@@H](n4cnc5c(N)ncnc54)[C@H](OP(=O)(O)O)[C@@H]3O)[C@@H](O)[C@H]2O)c1
The settings on record: other: coenzyme NADP or NAD; pH 8.9.

Substrate in data set [2]: NC(=O)c1ccc[n+]([C@@H]2O[C@H](COP(=O)([O-])OP(=O)(O)OC[C@H]3O[C@@H](n4cnc5c(N)ncnc54)[C@H](O)[C@@H]3O)[C@@H](O)[C@H]2O)c1
The settings on record: other: coenzyme NADP or NAD; pH 8.9.
Description: The activity required to increase the absorbance of 1 micromol of NADPH at 340 nm per minute was defined to be one unit.

Substrate in data set [3]: O=P(O)(O)OC[C@H]1OC(O)[C@H](O)[C@@H](O)[C@@H]1O
Particulars: other: substrate glucose-6-phosphate; pH 8.9.

B1: heat-resistant glucose-6-phosphate dehydrogenase from Bacillus stearothermophilus UK 788 (FERM-P No. 5141) (Geobacillus stearothermophilus ATCC 12980) (protein)
chain: MDNMNPKSIIVIFGATGDLAKRKLFPSLYRLYEKGHLNEQFAVVGVARRPLSADEFRNYVRDSVETAFHQKLADGRFTSHFYYHPFDVTEAESYQRLKSLLEQLDGTYKTEGNRIFYLAMAPEFFGTVTSRLQSEGLTETHGFKRLVIEKPFGHDLASAEKLNDEIRRVFSEREIYRIDHYLGKEMVQNIKVIRFSNAIFEPLWNNRFIANIQITSSETLGVEDRGRYYDHSGALRDMVQNHMLQMVALLAMEPPIKLTTDDIRHEKVKVLRALRPIAHDEVDRYFVRGQYGRGVIHGKHVPAYREEPNVDPDSNTETFVAGKLLIDNFRWAGVPFYIRTGKRMAEKSTKIVVQFKDVPMNLYYRTNETIAPNLLVIHIQPDEGITLHLNGKKTGESTTITAPFQLDYCNNCIDGINTPEAYEKLLYDCMRGDATNFTHWDEVAASWQFVDPISEVWANTKASDFPNYAAGSMGPAAAGELLKKDGFHWWPIEHPRP
Broadly, the Km is the concentration of substrate that gives half-maximal velocity. For the protein B1, the Km was 16 µM in data set [1], 1640 µM in data set [2] and 160 µM in data set [3].
